According to US11986516B2, “Compositions and methods for treatment of SARS-COV-2” (priority 2021, dated 2024):

What was measured:
[1] = Visual solubility assessment of ACE-2 protein in liquid excipients; assay type: physicochemical; settings: for Visual observation for solubility: 1.6 μg API in 3.0 g
Protocol: The solubility of compounds in liquid excipients was determined using visual solubility protocol. In this method, about 3.0 g of excipients was accurately weighed in individually labelled 20 mL scintillation vials (USP Type-I). To these vials, accurately measured 1 (1.67 μg) aliquots of protein was added and tightly closed. […] The vials were kept at ambient temperature without agitation for 72 hours and visually inspected at 0, 24, and 72 hours.

[2] = tested on: human reconstructed nasal epithelium model (NAS-100-BETA by MatTek); assay: Nasal irritation, MTT tissue viability; assay type: cell-based
Protocol: (§1) The formulations were performed using an increased dosage (e.g., 40-50 μg) compared to the study in Example 3.
(§2) Cultures were maintained and treated topically and at the end of the treatment, tissue viability was determined using the MTT conversion assay as described in Example 3. The Relative Tissue Viability values were determined and used to classify the test articles as irritant or non-irritants according to the assay criteria. As a secondary output, levels of the proinflammatory mediator IL-1α were determined as described in Example 3.

IL-1α [3] = assay: Nasal irritation, IL-1α levels; assay type: cell-based, human
Protocol: as §1, §2

[4] = tested on: reconstructed human skin model (Epiderm, EPI-200-X); assay: Skin permeation of rhACE-2 (ACE-2 ELISA of receiving medium); assay type: in vitro ADME; settings: for skin permeation value (rhACE-2 in receiving medium): 50 μg/ml rhACE-2 in formulation
Protocol: In order to determine the skin permeation profile, a reconstructed human skin model (Epiderm, EPI-200-X manufactured by MatTek Corporation) was used. This model includes normal, human-derived epidermal keratinocytes (NHEK) which have been cultured to form a multilayered, highly differentiated model of the human epidermis. The NHEK cells are cultured on specially-prepared cell culture inserts using serum free medium and attain levels of differentiation. The EpiDerm Skin Model closely parallels human skin, thus providing a useful in vitro means to assess dermal irritancy and toxicology.
After an acclimation period, the skin cultures were treated in triplicates PBS (negative control/baseline), vehicle formulation (“Placebo”), and formulation containing 50 μg/ml ACE-2. At the end of each time point culture medium was completely removed and replaced with fresh medium. The amount of permeated ACE-2 over time was determined by ACE-2 ELISA. Levels of ACE-2 in the receiving medium were determined at the following timepoints: 0 minutes, 5 minutes, 30 minutes, 60 minutes, 180 minutes, 540 minutes, 1260 minutes, and 1440 minutes.

[5] = tested on: human nasal epithelial cultures (EpiAirway, NAS-100-beta); assay: Nasal permeation of rhACE-2 (ELISA of receiving medium); assay type: in vitro ADME; settings: for nasal permeation value (rhACE-2 in receiving medium): 50 μg/ml rhACE-2 in formulation
Text: In order to determine the nasal permeation profile, human nasal epithelial cultures (EpiAirway, NAS-100-beta manufactured by MatTek Corporation) were used.
At the end of each time point, culture medium was completely removed and replaced with fresh medium.

[6] = tested on: EpiDerm™ cultures (EPI-200); assay: In Vitro EpiDerm Skin Irritation Test (EPI-200-SIT), MTT tissue viability; assay type: cell-based, human
IL-1α [7] = assay: EpiDerm skin irritation, IL-1α secretion (Quantikine ELISA); assay type: cell-based, human; settings: EpiDerm cultures, media collected after 24 hours; rhACE-2 2.5-40 μg/ml
[8] = tested on: hCoV-19/USA-WA1/2020 (WA); assay type: cell-based, SARS-CoV-2; settings: in µg/mL
[9] = tested on: hCoV-19/South Africa/KRISP-K005325/2020 (SA); assay type: cell-based, SARS-CoV-2

Molecule: rhACE-2
- Visual observation for solubility ([1]; in 1X PBS, 24 hr): Clear solution
- Visual observation for solubility ([1]; in 1X PBS, 72 hr): Clear solution
- Visual observation for solubility ([1]; in 1X PBS, Initial Observation): Clear solution
- Visual observation for solubility ([1]; in Glycerin, 24 hr): Clear solution
- Visual observation for solubility ([1]; in Glycerin, 72 hr): Clear solution
- Visual observation for solubility ([1]; in Glycerin, Initial Observation): Clear solution
- Visual observation for solubility ([1]; in Hexylene Glycol, 24 hr): Clear solution
- Visual observation for solubility ([1]; in Hexylene Glycol, 72 hr): Clear solution
- Visual observation for solubility ([1]; in Hexylene Glycol, Initial Observation): Clear solution
- Visual observation for solubility ([1]; in Polyethylene Glycol 400, 24 hr): Clear solution
- Visual observation for solubility ([1]; in Polyethylene Glycol 400, 72 hr): Clear solution
- Visual observation for solubility ([1]; in Polyethylene Glycol 400, Initial Observation): Clear solution
- Visual observation for solubility ([1]; in Polysorbate 20, 24 hr): Clear yellow
- Visual observation for solubility ([1]; in Polysorbate 20, 72 hr): Clear yellow
- Visual observation for solubility ([1]; in Polysorbate 20, Initial Observation): Clear yellow
- Visual observation for solubility ([1]; in Propylene Glycol, 24 hr): Clear solution
- Visual observation for solubility ([1]; in Propylene Glycol, 72 hr): Clear solution
- Visual observation for solubility ([1]; in Propylene Glycol, Initial Observation): Clear solution
- Visual observation for solubility ([1]; in Purified Water, USP, 24 hr): Clear solution
- Visual observation for solubility ([1]; in Purified Water, USP, 72 hr): Clear solution
- Visual observation for solubility ([1]; in Purified Water, USP, Initial Observation): Clear solution
- solubility in all the excipients tested ([1]; propylene glycol, hexylene glycol, glycerin, polyethylene glycol 400, polysorbate 20, purified water, PBS): readily soluble
- classification as nasal irritant ([2]; all tested concentrations, 3.06-50 μg/ml): nasal non-irritants
- average IL-1α levels (IL-1α [3]; rhACE-2 3.06 μg/ml): 0 ng/mL
- average IL-1α levels (IL-1α [3]; rhACE-2 6.125 μg/ml): 0 ng/mL
- skin permeation value (rhACE-2 in receiving medium) ([4]; 5 minutes post application): 0.402 ng/ml
- skin permeation value (rhACE-2 in receiving medium) ([4]; 30 minutes post application): 0.578 ng/ml
- skin permeation value (rhACE-2 in receiving medium) ([4]; 60 minutes post application): 1.28 ng/ml
- skin permeation value (rhACE-2 in receiving medium) ([4]; 180 minutes post application): 0.0196 ng/ml
- skin permeation value (rhACE-2 in receiving medium) ([4]; 540 minutes post application): 0 ng/ml
- skin permeation value (rhACE-2 in receiving medium) ([4]; 1260 minutes post application): 0.98 ng/ml
- skin permeation value (rhACE-2 in receiving medium) ([4]; 1440 minutes post application): 0.029 ng/ml
- permeation through reconstructed human skin tissue ([4]; at 50 μg/ml): minimal to negligible permeation
- nasal permeation value (rhACE-2 in receiving medium) ([5]; 5 minutes post application): 0.035 ng/ml
- nasal permeation value (rhACE-2 in receiving medium) ([5]; 180 minutes post application): 0.06 ng/ml
- nasal permeation value (rhACE-2 in receiving medium) ([5]; 540 minutes post application): 0.413 ng/ml
- nasal permeation value (rhACE-2 in receiving medium) ([5]; 1260 minutes post application): 1.03 ng/ml
- nasal permeation value (rhACE-2 in receiving medium) ([5]; 1440 minutes post application): 0.249 ng/ml
- permeation through reconstructed human nasal tissue ([5]; at 50 μg/ml): minimal to negligible permeation

Molecule: CCCCCCCCCCCCOS(=O)(=O)[O-].[Na+] [5% SDS]
- mean viability of positive control tissues expressed as percentage of the negative control tissues [6]: 4%
- secretion of IL-1α (IL-1α [7]): significant increase in IL-1α secretion
- mean viability of positive control tissues expressed as percentage of the negative control tissues ([2]; nasal epithelium model): 2%

Molecule: ACE2
- EC50 [8]: 9.206
- EC50 [9]: 1.18 µg/mL
